Among the data in patent US20040063656A1 are tyrosine phosphorylation of VEGFR-3 (immunoprecipitation and anti-phosphotyrosine Western blot), 293T cells co-transfected with 75% of WT and 25% of mutant plasmid and tyrosine phosphorylation of VEGFR-3 (immunoprecipitation and anti-phosphotyrosine Western blot), wild type and mutant vectors co-transfected values, retold here.

The target in the experiment is wild type human VEGFR-3 (Flt4), long form (human) (UniProt P35916). Put plainly: cell-based or functional assay.
UniProt P35916, sequence (P35916 25-1363 limits assumed): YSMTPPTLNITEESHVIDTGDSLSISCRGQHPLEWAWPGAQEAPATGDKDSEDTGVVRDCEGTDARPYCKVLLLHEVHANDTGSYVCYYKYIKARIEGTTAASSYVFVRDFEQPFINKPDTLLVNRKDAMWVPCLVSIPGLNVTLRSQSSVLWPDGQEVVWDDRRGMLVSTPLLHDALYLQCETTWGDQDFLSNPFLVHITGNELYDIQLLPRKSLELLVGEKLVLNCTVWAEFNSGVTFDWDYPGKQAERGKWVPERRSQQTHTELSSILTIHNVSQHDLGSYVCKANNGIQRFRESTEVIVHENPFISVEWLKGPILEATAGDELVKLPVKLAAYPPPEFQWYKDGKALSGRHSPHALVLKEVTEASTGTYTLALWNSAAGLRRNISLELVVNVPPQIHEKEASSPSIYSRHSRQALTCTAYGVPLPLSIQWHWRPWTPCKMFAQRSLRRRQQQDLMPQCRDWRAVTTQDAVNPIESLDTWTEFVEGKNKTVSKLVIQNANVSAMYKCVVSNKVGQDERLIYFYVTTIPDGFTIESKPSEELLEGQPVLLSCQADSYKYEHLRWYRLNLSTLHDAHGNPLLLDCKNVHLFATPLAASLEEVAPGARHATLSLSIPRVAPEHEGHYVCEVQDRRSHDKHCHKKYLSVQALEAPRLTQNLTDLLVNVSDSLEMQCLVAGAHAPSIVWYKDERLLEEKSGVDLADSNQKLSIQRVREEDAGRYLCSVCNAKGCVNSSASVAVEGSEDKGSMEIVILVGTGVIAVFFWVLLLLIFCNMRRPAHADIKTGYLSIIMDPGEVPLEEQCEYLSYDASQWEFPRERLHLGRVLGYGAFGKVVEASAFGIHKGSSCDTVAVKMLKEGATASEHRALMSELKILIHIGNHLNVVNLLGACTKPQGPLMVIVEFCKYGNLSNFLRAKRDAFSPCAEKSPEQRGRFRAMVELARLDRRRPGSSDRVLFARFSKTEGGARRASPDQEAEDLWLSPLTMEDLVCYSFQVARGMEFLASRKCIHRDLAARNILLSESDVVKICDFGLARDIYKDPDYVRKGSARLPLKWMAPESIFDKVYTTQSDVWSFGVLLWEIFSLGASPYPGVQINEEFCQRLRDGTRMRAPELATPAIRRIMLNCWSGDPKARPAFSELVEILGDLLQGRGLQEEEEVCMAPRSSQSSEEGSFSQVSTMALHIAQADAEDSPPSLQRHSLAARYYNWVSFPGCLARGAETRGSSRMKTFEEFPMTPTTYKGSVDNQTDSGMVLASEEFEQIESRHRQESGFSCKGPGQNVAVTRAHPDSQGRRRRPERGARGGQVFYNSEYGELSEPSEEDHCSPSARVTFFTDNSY

Take “P1114L mutant of human VEGFR-3 (long form) (from UniProt P35916 25-1363) (receptor)”: the tyrosine phosphorylation of VEGFR-3 (immunoprecipitation and anti-phosphotyrosine Western blot), 293T cells co-transfected with 75% of WT and 25% of mutant plasmid amounted to 90 % decrease; the tyrosine phosphorylation of VEGFR-3 (immunoprecipitation and anti-phosphotyrosine Western blot), wild type and mutant vectors co-transfected at a 1:1 ratio (% of the wild type alone) amounted to 4.
